Values of other authors in patent publication US8840883B2, “Metallo-protein and tocotrienol (MP-T3) compositions with non-protein-type metal chelator and uses thereof” (Naidu LP, priority 2007, dated 2014).

System: macrophages incubated with acetylated low-density lipoproteins (LDL)

B1: bovine milk LF: bi-lobed glycoprotein of the transferrin family of iron-binding metallo-proteins, from bovine milk (protein, UniProt P24627 20-708, looked up)
Lactotransferrin: APRKNVRWCTISQPEWFKCRRWQWRMKKLGAPSITCVRRAFALECIRAIAEKKADAVTLDGGMVFEAGRDPYKLRPVAAEIYGTKESPQTHYYAVAVVKKGSNFQLDQLQGRKSCHTGLGRSAGWIIPMGILRPYLSWTESLEPLQGAVAKFFSASCVPCIDRQAYPNLCQLCKGEGENQCACSSREPYFGYSGAFKCLQDGAGDVAFVKETTVFENLPEKADRDQYELLCLNNSRAPVDAFKECHLAQVPSHAVVARSVDGKEDLIWKLLSKAQEKFGKNKSRSFQLFGSPPGQRDLLFKDSALGFLRIPSKVDSALYLGSRYLTTLKNLRETAEEVKARYTRVVWCAVGPEEQKKCQQWSQQSGQNVTCATASTTDDCIVLVLKGEADALNLDGGYIYTAGKCGLVPVLAENRKSSKHSSLDCVLRPTEGYLAVAVVKKANEGLTWNSLKDKKSCHTAVDRTAGWNIPMGLIVNQTGSCAFDEFFSQSCAPGADPKSRLCALCAGDDQGLDKCVPNSKEKYYGYTGAFRCLAEDVGDVAFVKNDTVWENTNGESTADWAKNLNREDFRLLCLDGTRKPVTEAQSCHLAVAPNHAVVSRSDRAAHVKQVLLHQQALFGKNGKNCPDKFCLFKSETKNLLFNDNTECLAKLGGRPTYEEYLGTEYVTAIANLKKCSTSPLLEACAFLTR
  decrease of accumulation of CE in macrophages: more than 80%
